Measurements as given in US20200347137A1 (SYSTIMMUNE, published 2020).
Numbering of substitutions follows the chain as printed.

B1: Fc-PD224D1 scFv IgG1 null (Fc fusion, not shown: a dimerising Fc or GST; small tags and cut ends)
scFv: EVQLVESGGGLVQPGGSLRLSCTASGFSLSSYAMSWVRQAPGKGLEYIGYIGDTTGIAYASWANGRFTISKDNTKNTVDLQMNSLRAEDTAVYYCARGWSYLDIWGQGTLVTVSSGGGGSGGGGSGGGGSGGGGSALVMTQSPSSLSASVGDRVTITCQASQNIYSNLAWYQQKPGKVPKLLIYQASTLASGVPSRFSGSGYGTDFTLTISSLQPEDVATYYCQGGYYSAALNTFGGGTKVEIK
notes: a component control of the bispecific antibody
B2: PL221G5 IgG1 null (antibody, V domains shown)
VH: EVQLLESGGGLVQPGGSLRLSCAASGFSFSSGYDMCWVRQAPGKGLEWIACIAAGSAGITYDANWAKGRFTISRDNSKNTLYLQMNSLRAEDTAVYYCARSAFSFDYAMDLWGQGTLVTVSS
VL: DIQMTQSPSTLSASVGDRVTITCQASQSISSHLNWYQQKPGKAPKLLIYKASTLASGVPSRFSGSGSGTEFTLTISSLQPDDFATYYCQQGYSWGNVDNVFGGGTKVEIKR
B3: PL230C6 mAb (antibody, V domains shown)
VH: QSVEESGGGLVQPGGSLRLSCTASGIDLNTYDMIWVRQAPGKGLEWVGIITYSGSRYYANWAKGRFTISKDNTKNTVYLQMNSLRAEDTAVYYCARDYMSGSHLWGQGTLVTVSS
VL: AYDMTQSPSSVSASVGDRVTIKCQASEDIYSFLAWYQQKPGKAPKLLIHSASSLASGVPSRFSGSGSGTDFTLTISSLQPEDFATYYCQQGYGKNNVDNAFGGGTKVEIK
notes: also called PL23006
B4: PL231H2 mAb (antibody, V domains shown)
VH: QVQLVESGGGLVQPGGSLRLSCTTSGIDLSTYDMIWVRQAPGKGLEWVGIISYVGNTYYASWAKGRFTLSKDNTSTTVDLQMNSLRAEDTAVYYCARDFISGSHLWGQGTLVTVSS
VL: B3 VL with K22N, D28S, Y30S, A34S, H49F, S53T, G93S, N95S
notes: Anti-PD-L1 clone tested in mAb format
B5: PL004B9 mAb (antibody, V domains shown)
VH: EVQLVESGGGLVQPGGSLRLSCTVSGIDLSVINMGWVRQAPGKGLEWIGTITYVGNTYYASWAKGRFTISKTSTTVDLKITSPTTEDTAVYYCARESGTIYYSYFNLWGQGTLVTVSS
VL: AFELTQSPSSLSASVGDRVTIKCQASESISNYLSWYQQIPGKVPKLLIYYASNLASGVPSRFSGSGSGTDFTLTISSLQPEDVATYYCQSYYGGGSAYTFGGGTKVEIK
notes: as for B4
B6: PL221G5 Fc-scFv (Fc fusion)
scFv: EVQLLESGGGLVQPGGSLRLSCAASGFSFSSGYDMCWVRQAPGKGLEWIACIAAGSAGITYDANWAKGRFTISRDNSKNTLYLQMNSLRAEDTAVYYCARSAFSFDYAMDLWGQGTLVTVSSGGGGSGGGGSGGGGSGGGGSDIQMTQSPSTLSASVGDRVTITCQASQSISSHLNWYQQKPGKAPKLLIYKASTLASGVPSRFSGSGSGTEFTLTISSLQPDDFATYYCQQGYSWGNVDNVFGGGTKVEIK
notes: scFv at the C-terminus of an Fc; The Fc part is not specified; not shown: The Fc part and the linker joining it to the scFv
B7: PL230C6 Fc-scFv (Fc fusion)
scFv: QSVEESGGGLVQPGGSLRLSCTASGIDLNTYDMIWVRQAPGKGLEWVGIITYSGSRYYANWAKGRFTISKDNTKNTVYLQMNSLRAEDTAVYYCARDYMSGSHLWGQGTLVTVSSGGGGSGGGGSGGGGSGGGGSAYDMTQSPSSVSASVGDRVTIKCQASEDIYSFLAWYQQKPGKAPKLLIHSASSLASGVPSRFSGSGSGTDFTLTISSLQPEDFATYYCQQGYGKNNVDNAFGGGTKVEIK
notes: scFv at the C-terminus of an Fc; The Fc part is not specified; also called PL23006; not shown: The Fc part and the linker joining it to the scFv
B8: PL221G5 mAb (antibody, V domains shown)
VH: B2 VH
VL: DIQMTQSPSTLSASVGDRVTITCQASQSISSHLNWYQQKPGKAPKLLIYKASTLASGVPSRFSGSGSGTEFTLTISSLQPDDFATYYCQQGYSWGNVDNVFGGGTKVEIK
notes: as for B4
B9: PL004B9 Fc-scFv (Fc fusion, not shown: a dimerising Fc or GST; small tags and cut ends)
scFv: EVQLVESGGGLVQPGGSLRLSCTVSGIDLSVINMGWVRQAPGKGLEWIGTITYVGNTYYASWAKGRFTISKTSTTVDLKITSPTTEDTAVYYCARESGTIYYSYFNLWGQGTLVTVSSGGGGSGGGGSGGGGSGGGGSAFELTQSPSSLSASVGDRVTIKCQASESISNYLSWYQQIPGKVPKLLIYYASNLASGVPSRFSGSGSGTDFTLTISSLQPEDVATYYCQSYYGGGSAYTFGGGTKVEIK
notes: scFv at the C-terminus of an Fc

target: T1, PD-1 antigen expressed on the surface of cells (human, UniProt Q15116 25-288); assay: Flow cytometry on CHO cells expressing PD-1, Alexa Fluor 647 anti-human secondary
T1 construct: whole, on cells; also called PD-1 receptor; CHO cell line expressing PD-1 antigen
Procedure: (§1) Binding of the bispecific antibodies and their components to PD-1 antigen expressed on the surface of CHO cell line was assessed using FACS method. The bispecific antibodies were incubated with CHO cell line expressing PD-1 antigen and then detected with secondary anti-human antibodies directly conjugated to Alexa Fluor 647 fluorochrome. Cellular binding of the test antibodies was analyzed on a flow cytometer BD LSRFortessa.

T1 sequence (Q15116 25-288): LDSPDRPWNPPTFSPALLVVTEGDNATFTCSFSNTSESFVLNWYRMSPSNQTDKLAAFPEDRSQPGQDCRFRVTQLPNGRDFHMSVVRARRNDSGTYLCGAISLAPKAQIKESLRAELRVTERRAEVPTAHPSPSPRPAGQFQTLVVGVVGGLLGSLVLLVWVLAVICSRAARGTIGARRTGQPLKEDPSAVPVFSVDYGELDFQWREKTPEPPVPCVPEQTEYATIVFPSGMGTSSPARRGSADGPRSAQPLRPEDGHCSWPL

How did the “EC50 (read off the curve)” value turn out when B1 was run?
The value was roughly 1000 pM.

target: PD-L1 on CHO-PD-L1 cell line (human, UniProt Q9NZQ7 19-290); assay: cell-based or functional assay
Sequence (Q9NZQ7 19-290): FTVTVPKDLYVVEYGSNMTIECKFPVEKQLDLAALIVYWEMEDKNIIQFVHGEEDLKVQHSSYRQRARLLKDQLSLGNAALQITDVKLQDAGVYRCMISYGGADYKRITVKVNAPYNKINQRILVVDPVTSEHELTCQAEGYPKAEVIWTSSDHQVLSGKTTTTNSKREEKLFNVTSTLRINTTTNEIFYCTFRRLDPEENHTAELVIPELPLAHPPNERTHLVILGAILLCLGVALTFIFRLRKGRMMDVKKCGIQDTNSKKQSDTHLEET

With B2 as the binder, how does the “EC50 (read off the curve), NFAT-luciferase reporter, Jurkat PD-1 cells with CHO-PD-L1 cells” value read?
The value was roughly 300 pM.

target: T1, PD-1 antigen expressed on the surface …; assay: Flow cytometry on CHO cells expressing PD-1, Alexa Fluor 647 anti-human secondary. The value is printed beside the curves without a name; the text speaks of a KD. It is assigned to the lower, right curve (triangles) by its position.
Procedure: as §1

With B1 as the binder, how does the Kd read?
Its Kd is 1040 pM.

target: T2, PD-L1 recombinant protein (human, UniProt Q9NZQ7 19-238, limits assumed); assay: ForteBio Octet RED96, PD-L1 immobilised, antibody in solution
T2 construct: also called PD-L1 antigen
From the text: The antigen was immobilized on the sensor chip surface and the tested antibodies were flown over the immobilized antigens.

T2 sequence (Q9NZQ7 19-238 limits assumed): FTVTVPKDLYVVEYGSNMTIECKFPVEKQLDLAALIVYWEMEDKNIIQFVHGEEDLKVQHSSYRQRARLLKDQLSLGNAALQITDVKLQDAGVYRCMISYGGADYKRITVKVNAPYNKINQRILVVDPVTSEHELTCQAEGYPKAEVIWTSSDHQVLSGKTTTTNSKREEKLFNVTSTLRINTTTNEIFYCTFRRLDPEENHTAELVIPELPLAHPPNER

What does the source list for B3?
Kd: 769 pM; koff: 0.000468 s⁻¹; kon: 609000 M⁻¹ s⁻¹

B4 was tested. Which Kd did it give?
The Kd was 781 pM.

What about the koff of the same binder?
The koff was 0.000391 s⁻¹.

And the kon?
The kon was 501000 M⁻¹ s⁻¹.

With B5 as the binder, how does the Kd read?
The Kd was 1370 pM.

What about the koff of the same binder?
The koff was 0.000695 s⁻¹.

What about the kon of the same binder?
Its kon is 508000 M⁻¹ s⁻¹.

How did the Kd turn out when B6 was run?
The Kd was 412 pM.

What about the koff of the same binder?
Its koff is 0.000171 s⁻¹.

What about the kon of the same binder?
The kon was 414000 M⁻¹ s⁻¹.

For B7, which Kd is on record?
Its Kd is 868 pM.

What about the koff of the same binder?
Its koff is 0.000362 s⁻¹.

What about the kon of the same binder?
The kon was 418000 M⁻¹ s⁻¹.

For B8, which Kd is on record?
The Kd was 483 pM.

And the koff?
Its koff is 0.000276 s⁻¹.

What about the kon of the same binder?
The kon was 572000 M⁻¹ s⁻¹.

For B9, which Kd is on record?
Its Kd is 1540 pM.

And the koff?
Its koff is 0.000471 s⁻¹.

What about the kon of the same binder?
The kon was 307000 M⁻¹ s⁻¹.
